Results from paper PMC9119168 (Antiviral Research, 2022).
Where no end group is shown, it is not given here. Side-chain parts run from the residue outwards. The star is where a group is joined. Biotin = O=C1N[C@H]2[C@H](CS[C@H]2CCCCC(=O)*)N1; Aoa = not defined here

Tests used:
[1] = biological target: T1, SARS-CoV-2 Mac1 (conserved macrodomain of non-structural protein 3), His-tagged (SARS-CoV-2, UniProt P0DTD1); experiment: AlphaScreen or HTRF
[2] = biological target: T1, SARS-CoV-2 Mac1 (conserved macrodomain …); experiment: fluorescence polarisation

Binder | binding result [1] | binding result [2]
ARTK(Biotin)QTARK([Aoa-ADP‑ribose])S (reading uncertain) [10 amino acid biotinylated and ADP-ribosylated peptide [ARTK(Bio)QTARK (Aoa-RADP)S]] | binds | 
ARTKQTARKS [fluorescein labeled ADP-ribosylated peptide [5 Flu-ARTKQTARK (Aoa-RADP)S]] |  | binds
